Experiment: Library plate screen, activity on 12-pNCA
Type: biochemical
Details: seven-crossover library, cell lysate
Protocol: These library plates were replicated and grown in 96 deep-well plates in 900 μL of LB media with 100 μg/ml ampicillin overnight at 30° C. and 250 rpm. 150 μL of this was then transferred to 850 μL of induction media (TB-media with final concentrations of 100 μg/ml ampicillin, 25 μg/ml thiamine, 0.5 mM δ-aminolevulinic acid and 0.6 mM IPTG). These were grown for 20-24 hours at 25° C. and 190 rpm, harvested by centrifugation at 5000×g for 8 minutes and frozen at −20° C. for at least 24 hours. Cells were resuspended using a pipetting robot (Multimek 96, Beckman) and lysed in 400 μL of Epps or Tris buffer (100 mM, pH 8.2) containing 0.8 mg/ml lysozyme and 2 units/mL DNaseI for 1 hour at 37° C. Plates were then spun for 8 minutes at 5000×g and 4° C. to pellet cell debris. 80 μL of lysate was transferred into 4 separate 96 well plates for each library plate. […] On one plate, high -throughput carbon monoxide spectroscopy was done in order to assess relative amounts of P450 (Otey, C. R. High-throughput carbon monoxide binding assay for cytochromes P450. In Directed Enzyme Evolution: Screening and Selection Methods, F. H. Arnold and G. Georgiou, eds. (Totowa, N.J.: Humana Press) pp. 137-139 (2003)) with 0.1 M sodium hydrosulfite being used in place of 0.4 M. The other three plates were used to assay activity on different substrates. […]

B1: Chimera F3791: chimera of the CYP102A1/A2/A3 seven-crossover library (protein)
chain: KETSPIPQPKTFGPLGNLPLIDKDKPTLSLIKLAEEQGPIFQIHTPAGTTIVVSGHELVKEVCDESRFDKNLSQALKFVRDFAGDGLATSWTHEKNWKKAHNILLPSFSQQAMKGYHAMMVDIAVQLIQKWARLNPNEAVDVPGDMTRLTLDTIGLCGFNYRFNSYYRDSQHPFITSMLRALKEAMNQSKRLGLQDKMMVKTKLQFQKDIEVMNSLVDKIIADRKASGEQSDDLLTHMLNGKDPETGEPLDDENIRYQIITFLIAGHETTSGLLSFATYFLLKHPDKLKKAYEEVDRVLTDAAPTYKQVLELTYIRMILNESLRLWPTAPAFSLYAKEDTVLGGEYPISKGQPVTVLIPKLHRDQNAWGPDAEDFRPERFEDPSSIPHHAYKPFGNGQRACIGMQFALQEATMVLGLVLKHFELINHTGYELKIKEALTIKPDDFKITVKPRKTAAINVQRKEQA
modifications: Chimeric Cytochrome P450 heme group polypeptide sequence from CYP102A1 (Bacillus megaterium); CYP102A2 (Bacillus subtilis) and CYP102A3 (Bacillus subtilis)
notes: chimera of the CYP102A1/A2/A3 seven-crossover library
- activity for 12-pNCA compared to parent P450s: superior activity

From patent publication US8603949B2, “Libraries of optimized cytochrome P450 enzymes and the optimized P450 enzymes” (California Institute of Technology, priority 2003, dated 2013)
